# Assay: soluble on expression in E. coli; label from the status in PepcDB or PDB records
row,Sequence,soluble on expression in E. coli
1,MLPSISINNTSAAYPESINENNNDEINGLVQEFKNLFNGKEGISTCIKHLLELIKNAIRVNDDPYRSNINNSSVTYIDIGSNDTDHITIGIDNQEPIELPANYKDKELVRTIINDNIVEKTHDINNKEMIFSALKEIYDGDPGFIFDKISHKLRHTVTEFDESGKSEPTDLFTWYGKDKKGDSLAIVIKNKNGNDYLSLGYYDQDDYHIQRGIRINGDSLTQYCSENARSASAWFESSKAIMAESFATGSDHQVVNELNGERLREPNEVFKRLGRAIRYNFQVDDAKFRRDNVKEIISTLFANKVDVDHPENKYKDFKNLEDKVEKRLQNRQTKYQNEINQLSALGVNFDDI,not soluble
2,MSKKLTTAAGCPVAHNQNVQTAGKRGPQLLQDVWFLEKLAHFDREVIPERRMHAKGSGAYGTFTVTHDITKYTKAKIFSDIGKKTDMFARFSTVAGERGAADAERDIRGFSLKFYTEEGNWDLAGNNTPVFFLRDPLKFPDLNHAVKRDPRTNMRSAKNNWDFWTSLPEALHQVTIVMSDRGIPATYRHMHGFGSHTFSFINSDNERYWVKFHFVSQQGIKNLSDAEAGELVGNDRESHQRDLLDSIDNQDFPKWTLKVQIMPEADAATVPYNPFDLTKVWPHKDYPLIEVGEFELNRNPQNYFAEVEQAAFNPANVVPGISFSPDKMLQGRLFAYGDAQRYRLGVNHQHIPVNAPRCPVHSYHRDGAMRVDGNFGSTLGYEPNDQGQWAEQPDFSEPPLNLDGAAAHWDHREDEDYFSQPGDLFGLMTAEKQAILFDNTARNLNGVPKEIQLRHVTHCYKADPAYGEGIGKLLGFDISEYNS,soluble
3,QVQLQESGPGLVKPSETLSLTCTVSGASISSYYWSWIRQPPGKGLEWIGYIGGEGSTNYNPSLKSRVTISVDTSKNQFSLKLRSVTAADTAVYYCARERLGIGDYWGQGTLVTVSSASTKGPSVFPLAPSSKSTSGGTAALGCLVKDYFPEPVTVSWNSGALTSGVHTFPAVLQSSGLYSLSSVVTVPSSSLGTQTYICNVNHKPSNTKVDKKVEPK,soluble
4,MSDTPAQTPEPSKKTPEPSGVDLARVALRAAKEQARARGDAAQQKRQARRGGLRSGARADGRDPMALGAAINRLLTERGWETPAAVGGVMGRWPQIVGEDLAKHCVPQRYDEDERVLTVQCDSTAWATQLRLLAPQLVARLNEDLGHGTVRLLKVQGPGGPARRYGPLRAPGSTGPGDTYG,not soluble
5,MNEQWMSALPLDNVKDISPVSGGDVNEAFKVTTVEEDIFFLLVQRQRSEAFYAAEIAGLNEFENAGITAPRVIASGEINGDAYLLLSFLEEGSQGSQRELARLVARMHSQYQQDNKFGFRLPHEGADISFDNSWTETWKEIFINRRMDHLQDELLRVGLWKQEDKKMYERVRKVIVDELSNHTSKPSLLHGDLWGGNYMFLTNGQPALFDPAPLYGDREFDIGITTVFGGFTQEFYDEYNQQLPLAKGSQKRIEFYRLYLLMIHLLKFGGMYADSVQRSMKIILELEHHHHHH,soluble
6,MSLRKNIFFIVFIILCAVSCTEKKSNFINTVHLKGQLLDMGSQNVRMRFDGAASMLGDSRDILLKTDAAGYFDTTFVLKEPTYYTISRNTLYLTPGDDMTIKVTQTNTEAEFSGIGAEANNYMKFRLFPKGGSYLEAGGNLRGDFVSTKALVDSLAAIRMHTLDTLSNVSDAFKKLETARIKADIINSYICYASYSRMFAEVKNEEEMRAKWNEFNVSLTQDVTPLYKEIVNEDMLNVAVVRDVLSYQEDSTLASLWFKDISIPARTTELYACAKIVDNLRNEASEQTVNEAKAFLQTVKNADFATEIEGKIVQASKLLPGQPAIDFEMLDVEGNVKHLADFKGKVIYIDLWATWCGPCIQESPAFEALGKKYVGKDIVFLPVSTDTTTKPWLRYLDGHKKELTQYHSNDVALKESWAIMYIPRFILIDKDFNIVNAYAPRPSSEEIGTLIDSVLNKEGHHHHHH,soluble
7,MGSDKIHHHHHHMLKINQVKLTQVNLAQINTAKVNTIPAKVVHKMMKKVVITTLIAMNLMQVSFAADVVEKNETKVVAKPVKVAPVLNMPMAAKTELNATLYSRSHIPITASLNARVDYLVEPGDFVAQGDKLAGMDLLPIQLRQAEQKAQISRARINVAYIKNELSRLQALSKTQAVSQFKLDQMRSEHDLAAADLEIAQLKLAQINEQLSRAIITAPFAGIITERLIRVGSEVNRGDILLRLLDTEHLEARLYIPIKYLAFINKGDKLSMSASDQKTLAAVTAKIPRADPRSQTFEVRLNIPKAFNKHWAAGQLVSVSVPTQKATASLTVPRDALILRKSGSYVIKVNADNTVSRLAVVVGKGNKERVAITGSLKHGDNVAIRGAERLADGDKVVIQ,not soluble
8,MDINQNYREAVKTIKEAILRSQYRAATSVNKEQLSLYYGIGRYVSKNSRIGFWGKGAIEQISSLLQKELPGLRGFSTSNIKNMRVFYEEWEPVLNRQPLAGDLVLDEKLLLSVIRQPLADEFNWSDFFSIGFSHHTEIISKAKTLEARLFYIHECAIRYWSKYTLRDYLKADLYSHRGTLPNNFAQTLPDTKQALKAVCSFKDEYLLDFINVEELDEQEEDLDEKIVEKSIVANVKKFIMTFGQDFSFIGNQYRVEVAGEEMFIDLLFFNRELNSLVAVELKSGKFRSSYLGQLNTYLSALDSYVRKPHENPSIGIILCREMNQTFVEFAVRDYNKPMGVATYRTSKDMPERLRNALPDIEELRKLL,not soluble
9,MGSDKIHHHHHHMVNSEQALHQHDPAPILQLDKVSKSFGPVNVINQVSIDVRPGRVLALLGENGAGKSTLIKMMSGVYQPDGGQILVDGKPTTLPDTKTAESFGIATIHQELNLVPTMTVAENVMLGRTPRKWGLVNFKHLRRQAQAALDLIGVDVDLNAQVGSLGIARQQMVEIAKALSMNARILILDEPTAALTGREIDQLFKVVDQLKEKGVAMVFISHHLDEIARIGDTVSVLRDGQFIAELPADTDEDELVRLMVGRSIENQYPRSAPEIGQPLLEVKNLNAEGRFTDISLTVRAGEVVGLAGLVGAGRTEVVRSIAGVDKVDSGEVIVAGKKLRGGDISEAIKNGIGHIPEDRKAQGLVLGSSVEDNLGLATLASTARAGLVDRSGQHKRAAEVAEKLRIRMASLKQPISDLSGGNQQKAVFGRWVLAGSNVLLLDEPTRGVDVGAKVEIYNIINEMTEKGGAVLMVSSELPEVLGMADRILVMSGGRIAGELPAKGTTQDDVMALAVSQVDDSITEEAAAEIENTKEDR,not soluble
10,MGMEYSFGFTKIDEAQKQSMVDGVFHSVAENYDKMNDILSLGLHRMWKNSMVAWLSPPAVFHWKVLDVAGGTGDIAFRILNASRQKAHATVLDINGSMLSVGKKRAEKNGLAPLIDFVEANAEHLPFEDQSFDAYTIAFGIRNVPHIDQALREAFRVLKPGGRFLCLEFSNVEMPLLDKIYDLWSFHAIPKLGQLIANDGDAYRYLVESIRKFPKQDDFAHMINHVGFSRVSYRNLTGAIAALHSAWKILEHHHHHH,not soluble
11,MGSDKIHHHHHHMAPDLASLQRISGDSAIDQWLQVPGSWVEEPNERRGGASGVQRVYTGDGRLLYRKQQTGHVYRDWQRPFGYPTAMRERDALRAFESLGIRVPRLVYSGCRKVDGQWQALLVTEALEGFSSLDECYARGDQDRWGEAKHQRILQQIGATIARMNLAHWQHGCLYPKHIFVRVEGEAIEVALIDLEKSRRRLTVNKASQHDLKQLKRRSSWTGAQWQAFIYGYQTAFGSAIKGLQT,not soluble
12,SSEELLKQALQQAQQLLQQAQELAKKGGGEELLKQALQQAQQLLQQAQELAKKGGGGEELLKQALQQAQQLLQQAQELAKKGGGEELLKQALQQAQQLLQQAQELAKK,soluble
13,HDAIFILDKQGRLTWINQSYSALSGNTLEDIEGKDLPSILQLDKIKHANIIILLQSLETGTSISFELTNHHKDGTLFWIDVSITPILEPN,not soluble
14,MKPEKRHATESMTMEALLDLLPKDAATDPTGRRLAELVTRIATKRVPVSSFSRIWNLGSLQARVTIGYVAYWLRSRFADSDEKQRLRNEAHLAAALRLFGTMGYLRGAVMKIGQLLANLPEVVPEEFAEVLSALHFEAPPMHFSLVRELFLDEFGREPEELFASFDRQAFAAASLGQVHRARLKSGEEVAVKIQYPGIARTIKADLRNLRLLLQPLCLTNDWQNTLDKLADIEQMLLMETDYEQEARFCREARLLFTTEDRVVVPRVFDDYSTKRVLTTEFLTGCHLDQFLAGNPSQAERDHFTTLLTVATMRIYYRLHWFCADPHPGNFIFMLDGRLGLIDFGCTRAMNGEEWRLICELEQAHQEEDAEQFDRVIARATLYDSPEAMGKEQLAVVRRNVLWNMEPWLKEGLFDFGDREFFMRGIDGLMELTRKRYTRGSPLYLWSTRFVLGGRAVCYQMRGRCEFQEIFRQESAWVCPEPPILEHHHHHH,not soluble
15,MSLCIIGSGPGGLCMARALKRQGLDYEQFERHGEVGGVWDINNPGTPMYQSAHFISSRDQSGFIDYPMPAHFPDYPSNRQIFEYVRSFAVAFDLYDRIRFNTAVKDVEKEQDGRWLVTLASGERRRYRAVVCATGCNWDPNMPEVKGQFEGTVRHSVTYKNPDEFKGKRVMVIGADNSGADIACDAAKHADKAFISMRRGYHLIPKHLFGMPVDEFGEKGPQLPMWLARPVFQTILRVINGDTRRFGLPRPDHKLFESHPLLNTQLLHYLQHGDIQVKPDVSHYEGQHVVFKDGTREPLDLVLYATGYKWSCPYAAKYFEWQGGRPRLYLSIFSREHHNLFGIGYVETNSSAYKLFDSEAHAVACYLRDQLHQKTQASHFDQLIATDDPDLSGGIKFVKSQRHEVYLEAHALKKYLRKLFHSEGHHHHHH,not soluble
16,GPLGSEVKKKKNKKKNKKVNGLPPEIAAVPELAKYWAQRYRLFSRFDDGIKLDREGWFSVTPEKIAEHIAGRVSQSFKCDVVVDAFCGVGGNTIQFALTGMRVIAIDIDPVKIALARNNAEVYGIADKIEFICGDFLLLASFLKADVVFLSPPWGGPDYATAETFDIRTMMSPDGFEIFRLSKKITNNIVYFLPRNADIDQVASLAGPGGQVEIEQNFLNNKLKTITAYFGDLIRRPASET,soluble
17,MNTDHERWRTEYAGGTAVAYDDKVVLQGDSARLAGLLQDGGGRAHIYFDGASRGNPGPAAIGWVIVTDDGIVAEGSERIGRATNNQAEYEALIEALAAAADYAFDEAVVKGDSQLIVKQVRGEWDTNDPTLREKRVRVRKLLEEFSEWSLDHVPREINDRADDLANEALDGLEHHHHHH,soluble
18,MAFDGCCPDCKLPGDDCPLIWGACNHAFHLHCILKWVNSQTSQAHCPMCRREWQFKE,soluble
19,MGSDKIHHHHHHQVAYFMSFAGNETFIRELVKQFGSDEVLIVYKTNVKENVLQLQQGHIIKHAIEFKKFQVTSFVKGIKLARVTLFDNYYPELSAINKTKKDYFIQMWHANGAIKAFGWEDPSTYHRSVEDQQRFQRVYDSFDQIVVGSEKMADVFQRSWHVASDKIDRIGYPRTDKYFEESWIEKARKKIQTKLPELTQKRVILYAPTYRKDVSFSLPDDWRKIKVPQDAVLIVRLHPHLANVERQIVDASPDRVIMVDHFISTQELLCVADTLITDYSSIAFDFSLLDNARSVIFFTYDLEEFERTVGIQASFKAAFLNQMVNTVEQLNDAILFGNSDKNVIHKLNQQWNTLNDGHSSARLIKQVKERCTDE,not soluble
20,MSHAVARLRAERLARSNKPFIARGSRAERCPDCRVIATHCLCAWKPRVQADAGVCLLMHDTEPLKPTNTGWLIADLIEDTWAFGWLRTAVDERLLALLDDPRWQPYIVFPGEFVAQERVVSEVVREPGKRPLFILLDATWTEARKMFRKSPYLDRFPVLSLQAEQMSRYRLRRSKRDDHFCTAEVAAMCLDLAGDGQASQALDAYLDVFSLHYLSGKRRLPLDEQDDTHQRLHTFLLEHHHHHH,soluble
